Experimental data as given in patent US20240101645A1 (HENRY M JACKSON FOUNDATION FOR THE ADVANCEMENT OF MILITARY …, published 2024).

target: SARS-CoV-2 S on pseudovirions (Wuhan Hu-1 / IL1/2020, last 18 amino acids removed) (SARS-CoV-2, UniProt P0DTC2 14-1273); test: cell-based or functional assay

Row | Binder | Mean IC50, pSV neutralization | Mean IC80, pSV neutralization
1 | COV_2172 (SEQ ID NO:442/447) (antibody, V domains shown) VH: EVQLVESGGGVVQPGRSLRLSCAPSGFTFSTYAMHWVRQAPGKGLEWVAVISYDGSIKYYADSVKGRFTISRDNTMNTVFLQMNSLRAEDTAVYFCAKGGERWELFTSFDYWGQGTQVTVSS VL: QSALTQPRSVSGSPGQSVTISCTGTSSDVGGYNYVSWYQQHPGKAPKLMIYDVSKRPSGVPDRFSGSKSGNTASLTISGLQAEDEADYYCCSYAGSYTFVFGGGTKLTVL | 3.73 µg/ml | ≥ 25 µg/ml
2 | COV_1198 (antibody, V domains shown) VH: EVQLVEAGGDLVQPGGSLRLSCSASGFTFTSYSIHWVRQAPGKGLEYVSTISHGGDITDFADSVKGRFTISRDNSENTVYLQMSSLRPEDTAVYYCARSNFWLDYWGQGTLVTVSS VL: KIVMTQSPATLSVSPGDSATLSCRASQSVSSNLAWYQQKPGQAPRLLISGAFTRATGIPARFSGSGSGTEFTLTISSLQSEDFAVYYCLQYNNWPLYTFGQGTKLEIKR | ≥ 25 µg/ml | ≥ 25 µg/ml
3 | COV_1071 (antibody, V domains shown) VH: QVHLVQSGAEVQKPGASVKISCKASGDTFSESYVHWVRQAPGSGLEWMGIINTRDGDTNYTHQFQDRVMMTTDTSTSTVFLELYSLTSEDTAVYYCARAPDQYFDYWGQGSPVTVSA VL: DIVMTQTPLSSPVTLGQPASISCRSSESLVHSNGNTYLSWLQQRPGQPPKLLIYRVSNRFSGVPDRFSGSGAGTEFTLKISRVEAEDVGVYYCMQARHFPRTFGQGTKVEIKR | ≥ 25 µg/ml | ≥ 25 µg/ml
4 | COV_1087 (antibody, V domains shown) VH: QVQLVQSGAEVQKPGASVKVSCKASGDTFSYHYVHWVRQAPGYGLEWMGIIDPRNADTNYTQKFQGRVTMTTDTSTNTVFLELSSLTSDDTAVYYCARAPDQYFDYWGQGSPVTVSA VL: DIVMTQTPLSSPVTLGQPASISCKSSESLLHSDGNTYLSWLQQRPGQPPRLLIYRVSNRFSGVPDRFSGSGAGTDFTLRISRVEAEDVGVYYCMQATQFPRTFGQGTKVEIKR | ≥ 25 µg/ml | ≥ 25 µg/ml
5 | COV_1086 (antibody, V domains shown) VH: GAQLLESGGALVQPGGSLRLSCAASGFTFNNYGMGWVRQTPGKGLEWVSTINDNGGNTHYADSVKGRFTISRDNSKHTLYLQMNSLRVEDTALYYCAKDVGGPALFEYWGHGTLVTVSS VL: DIVMTQTPLSSSVTLGQPASISCRSSQSLVHSDGNTYLTWLQQRPGQPPKLLIYKISNRLSGVPDRFSGSGAGTDFTLKISRVEAEDVGVYYCMQATHFPRTFGQGTKLEIKR | ≥ 25 µg/ml | ≥ 25 µg/ml
6 | COV_1045 (antibody, V domains shown) VH: QVHLVQSGAEVQKPGASVKISCKASGDTLSDSYVHWVRQAPGSGLEWMGIINTRDGDTNYTHQFQDRVMMTTDTSTSTVFLELFSLTSEDTAVYYCARAPDQYFDYWGQGSPVTVSA VL: DIVMTQTPLSSPVTLGQPASISCRSSESLVHSNGNTYLSWLQQRPGQPPRLLIYRVSNRFSGVPDRFSGSGAGTEFTLKISRVEAEDVGVYYCMQARHFPRTFGQGTKVEIK | ≥ 25 µg/ml | ≥ 25 µg/ml
7 | COV_2108 (antibody, V domains shown) VH: EVQLVESGGGVVQPGRSLRLSCAASGFTFSNYAFHWVRQAPGKGLEWVAVISYDGSIKYSADSVKGRFTISRDNSKNTLYLQMNSLRAEDTAVYYCARDSGDYVDYFDYWGQGTLVTVSS VL: DIQMTQSPSSLSASVGDRVTITCRASQSISSYLNWYQQKPGKAPKLLIHTTSSLQSGVPSRFSGSGSGTGFTLTISSLQPEDFATYYCQQSYSSPPLTFGGGTKVEIK | 13.5 µg/ml | 15.8 µg/ml
8 | COV_1076 (antibody, V domains shown) VH: QVQLVESGGGLVKPGGSLRLSCAASGFTFSEYSMSWIRQAPGKGLEWVSFIGGSGDYTNYADSVKGRFTISRDNAKNLLYLQMNTLRVEDTAVYYCARRGSANCGDDWWGQGTLVTVSS VL: DIVMTQSPDSLAVSLGERATINCKSSHGVLYRSNNKDHLAWYQQKPGHPPKLLIYWASIRESGVPDRFSGSGSGTDFTLTISGLQAEDVAVYYCQQYYGNPTFGGGTKVEIKR | ≥ 25 µg/ml | ≥ 25 µg/ml
9 | COV_2066 (antibody, V domains shown) VH: QVQLQESGPGLVKPSETLSLTCSVSGFAITNGFDWGWIRQPPRLGLEWIGTVFHTGVTYSNPSLKSRLSTSVDTSKNQFSMTLNSVTAADTGIYYCVRVQSGLEARAMSFFDYWGQGMLVSVSS VL: DIVMTQSPDSLAVSLGERATINCKSSQNVLYSSNNKNSLAWYQQKPGQPPKVLIYWASTRVSGVPDRFIGSGSGTDFTLTISSLQAEDVAVYYCQQYSSSITFGPGTKVEVKR | ≥ 25 µg/ml | ≥ 25 µg/ml
10 | COV_1082 (antibody, V domains shown) VH: EVQLVESGGGLVQPGGSLRLSCAASGFIFNIHGMNWFRQAPGKGLEWISHIGTSGESRDIHYADSVRGRFTISRDNGKHSLYLQMNSLTAEDTAVYFCARGLTNSDLWGQGTLVTVSS VL: EIVMTQTPLSSPVTLGQPASISCRSSESLVHSNGDTYLSWLHQRPGQPPRLLLYKISNRFSGVPDRFSGSGAGTDFTLTISRVEAEDVGLYYCMQATSFPRTFGQGTKVEIKR | ≥ 25 µg/ml | ≥ 25 µg/ml
11 | COV_2018 (antibody, V domains shown) VH: QVQLVQSGAEVKKPGSSVKVSCKASGGTSSSYAISWVRQAPGQGLEWIGGIIPIFDTTKYAQKFQGRVTITADESTNTAYMEVSSLRSEDTAVYYCAKVADRVGASTGELDYWGQGTLVTVSS VL: EVVLTQSPATLSLSPGERGTLSCRASQSISNYLAWYQQKPGQAPRLLIYNASNRATGVPARFSGSGSGTDFTLTISSLEPEDFAVYYCQQRSNWPPWTFGQGTKVEIK | 0.31 µg/ml | 1.27 µg/ml
12 | COV_3000 (antibody, V domains shown) VH: EVQLVESGGGLVQPGRSLRLSCTASGFNFGDNSMSWVRQAPGKGLEWVGFISNRASGGTTEYAASVKGRFTISRDDSKSIAYLQMNSLKTEDTAMYFCTKDSYGHFPNYGFDIWGQGTMVTVSS VL: AVVMTQTPLSLSVTPGQPASISCKSSQSLIHTDGKTYHYWFLQRPGQPPQLLIYDVSNRVSGVPDRFSGSGSGTDFTLKISRVEADDVGVYYCMHSIQLPRAFGQGTKVEIT | ≥ 25 µg/ml | ≥ 25 µg/ml
13 | COV_3037 (antibody, V domains shown) VH: EVQLVESGGGLVQPGRSLRLSCTASGFNFGDNSMSWVRQAPGKGLEWVGFISNRAYGGTTEYAASVKGRFSISRDDSKSIAYLQMNSLRTEDTAMYFCTKDSYGHFPNYGFDIWGQGTMVIVSS VL: VVVMTQTPLSLSVTPGQPASISCKSSQSLIHTDGKTYHYWFLQRPGQPPQLLIYDVSNRVSGVPDRFSGSGSGTDFTLKISRVEADDVGVYYCMHSIQLPRAFGQGTKVEIT | ≥ 25 µg/ml | ≥ 25 µg/ml
14 | COV_1037 (antibody, V domains shown) VH: QVQLVESGGGVVQPGRSLRLSCAASGFTFSSYGMHWVRQAPGKGLEWVAVIWYDGSNKYYADSVKGRFTISRDNSKNTLYLQMNSLRAEDTAVYYCARGGYQLLWHYYYYYGMDVWGQGTTVTVSS VL: not shown | ≥ 25 µg/ml | ≥ 25 µg/ml
